Laboratory results: doi:10.1101/2021.09.02.458738

Target: ArPEC25-mCherry (Ascochyta rabiei)
Assay: FRET or BRET

FRET efficiency: 2.75
Substance: CaβLIM1a-GFP (natural protein)
